Results: article PMC3333885 (Nucleic Acids Research, 2011)

Legend:
[1] = molecular target: T1, EcoP15I Res translocase (Tr) domain (UniProt Q5ZND2 1-705); test: EMSA
T1 sequence: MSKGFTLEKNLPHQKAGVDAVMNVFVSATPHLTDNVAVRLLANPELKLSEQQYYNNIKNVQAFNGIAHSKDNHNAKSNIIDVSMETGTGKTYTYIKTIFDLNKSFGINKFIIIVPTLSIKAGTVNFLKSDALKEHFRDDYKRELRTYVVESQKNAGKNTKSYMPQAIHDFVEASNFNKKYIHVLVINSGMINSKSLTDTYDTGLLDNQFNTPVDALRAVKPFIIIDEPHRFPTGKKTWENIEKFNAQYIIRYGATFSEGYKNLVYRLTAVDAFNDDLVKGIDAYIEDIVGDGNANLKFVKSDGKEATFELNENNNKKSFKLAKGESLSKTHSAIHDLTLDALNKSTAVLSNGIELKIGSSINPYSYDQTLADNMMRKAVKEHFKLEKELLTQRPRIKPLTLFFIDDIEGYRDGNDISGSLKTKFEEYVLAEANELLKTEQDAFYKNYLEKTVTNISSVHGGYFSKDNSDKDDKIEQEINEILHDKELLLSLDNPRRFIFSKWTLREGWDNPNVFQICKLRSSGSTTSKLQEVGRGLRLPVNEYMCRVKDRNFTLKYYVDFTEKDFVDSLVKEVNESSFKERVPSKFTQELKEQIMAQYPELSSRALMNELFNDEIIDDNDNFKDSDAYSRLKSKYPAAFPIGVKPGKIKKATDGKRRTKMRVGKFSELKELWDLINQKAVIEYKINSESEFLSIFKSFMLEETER

[2] = molecular target: T2, EcoP15I Mod subunit;EcoP15I Res translocase (Tr) domain (Escherichia coli?;Escherichia coli?, UniProt P12364;Q5ZND2 1-644;1-705, |); test: EMSA
T2 sequence 1: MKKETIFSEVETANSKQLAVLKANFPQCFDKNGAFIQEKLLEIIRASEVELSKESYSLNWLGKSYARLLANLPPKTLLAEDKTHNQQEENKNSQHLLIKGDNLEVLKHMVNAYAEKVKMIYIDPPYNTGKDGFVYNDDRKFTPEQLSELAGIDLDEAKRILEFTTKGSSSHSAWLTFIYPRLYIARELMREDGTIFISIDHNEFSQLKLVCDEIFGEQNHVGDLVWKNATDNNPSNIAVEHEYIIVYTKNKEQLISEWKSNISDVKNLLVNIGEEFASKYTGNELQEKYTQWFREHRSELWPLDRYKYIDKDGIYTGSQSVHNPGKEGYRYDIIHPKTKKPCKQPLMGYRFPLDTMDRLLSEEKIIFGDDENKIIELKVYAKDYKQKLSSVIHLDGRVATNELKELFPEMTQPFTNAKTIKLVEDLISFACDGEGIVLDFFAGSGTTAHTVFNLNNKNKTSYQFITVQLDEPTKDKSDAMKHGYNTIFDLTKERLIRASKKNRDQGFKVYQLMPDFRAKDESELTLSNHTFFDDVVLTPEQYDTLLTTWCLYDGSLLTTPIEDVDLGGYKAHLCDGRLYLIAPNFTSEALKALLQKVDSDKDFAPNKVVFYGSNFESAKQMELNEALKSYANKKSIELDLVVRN
T2 sequence 2: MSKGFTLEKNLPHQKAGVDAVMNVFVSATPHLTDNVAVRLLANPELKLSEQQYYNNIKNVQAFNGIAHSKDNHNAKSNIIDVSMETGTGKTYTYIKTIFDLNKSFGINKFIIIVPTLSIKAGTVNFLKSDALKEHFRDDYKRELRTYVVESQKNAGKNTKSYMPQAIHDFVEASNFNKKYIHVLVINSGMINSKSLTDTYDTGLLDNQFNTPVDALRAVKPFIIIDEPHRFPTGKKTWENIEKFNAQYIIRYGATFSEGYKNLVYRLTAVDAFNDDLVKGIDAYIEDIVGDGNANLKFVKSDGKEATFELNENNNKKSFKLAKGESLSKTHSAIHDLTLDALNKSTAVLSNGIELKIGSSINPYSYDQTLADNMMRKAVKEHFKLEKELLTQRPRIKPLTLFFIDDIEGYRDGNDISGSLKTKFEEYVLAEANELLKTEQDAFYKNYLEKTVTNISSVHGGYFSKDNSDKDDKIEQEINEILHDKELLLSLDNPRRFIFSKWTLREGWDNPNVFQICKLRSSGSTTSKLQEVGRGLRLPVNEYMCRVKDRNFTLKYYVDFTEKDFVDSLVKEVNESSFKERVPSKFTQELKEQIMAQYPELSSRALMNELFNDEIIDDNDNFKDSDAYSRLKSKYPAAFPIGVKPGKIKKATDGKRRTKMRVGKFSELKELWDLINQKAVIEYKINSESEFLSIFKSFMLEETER

[3] = molecular target: EcoP15I Mod subunit;EcoP15I Res subunit (Escherichia coli?;Escherichia coli?, UniProt P12364;Q5ZND2 1-644;1-970, |); test: EMSA
AUC = molecular target: the molecule itself; test: AUC
[4] = molecular target: T3, EcoP15I Res subunit (earlier preparations from pACYC177, no affinity tag) (UniProt Q5ZND2 1-970); test: densitometry of SDS-PAGE of the purified enzyme
T3 sequence (looked up): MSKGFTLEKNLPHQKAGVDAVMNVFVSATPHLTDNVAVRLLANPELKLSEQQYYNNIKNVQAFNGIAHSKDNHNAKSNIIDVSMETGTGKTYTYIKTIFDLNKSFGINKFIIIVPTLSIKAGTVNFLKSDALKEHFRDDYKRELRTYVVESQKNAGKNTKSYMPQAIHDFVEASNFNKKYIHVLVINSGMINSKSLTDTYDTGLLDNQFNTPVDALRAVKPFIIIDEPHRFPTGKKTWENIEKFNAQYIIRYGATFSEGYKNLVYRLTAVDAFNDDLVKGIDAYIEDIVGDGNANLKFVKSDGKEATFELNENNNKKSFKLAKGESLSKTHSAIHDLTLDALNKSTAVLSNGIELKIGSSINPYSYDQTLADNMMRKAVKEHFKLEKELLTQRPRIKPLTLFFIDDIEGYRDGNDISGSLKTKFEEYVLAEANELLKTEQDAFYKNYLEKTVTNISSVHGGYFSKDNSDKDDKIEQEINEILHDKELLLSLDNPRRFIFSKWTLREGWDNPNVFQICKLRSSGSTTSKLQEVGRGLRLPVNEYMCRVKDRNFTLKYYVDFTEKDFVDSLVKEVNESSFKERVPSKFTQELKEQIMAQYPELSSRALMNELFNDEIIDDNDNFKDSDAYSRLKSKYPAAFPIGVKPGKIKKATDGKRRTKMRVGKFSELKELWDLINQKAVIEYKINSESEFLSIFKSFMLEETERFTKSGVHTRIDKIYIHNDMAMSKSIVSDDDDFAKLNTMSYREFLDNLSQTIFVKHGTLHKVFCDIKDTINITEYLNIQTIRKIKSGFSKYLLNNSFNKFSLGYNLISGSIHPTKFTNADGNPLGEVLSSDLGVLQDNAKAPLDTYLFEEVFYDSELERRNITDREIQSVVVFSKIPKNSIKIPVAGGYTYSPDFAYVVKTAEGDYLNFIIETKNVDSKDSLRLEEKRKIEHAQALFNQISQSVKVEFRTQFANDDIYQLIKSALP

[5] = molecular target: T4, EcoP15I Res subunit, C-terminally His6-tagged (from pQEP15) (UniProt Q5ZND2 1-970); test: second-derivative UV absorption spectroscopy
T4 sequence (looked up): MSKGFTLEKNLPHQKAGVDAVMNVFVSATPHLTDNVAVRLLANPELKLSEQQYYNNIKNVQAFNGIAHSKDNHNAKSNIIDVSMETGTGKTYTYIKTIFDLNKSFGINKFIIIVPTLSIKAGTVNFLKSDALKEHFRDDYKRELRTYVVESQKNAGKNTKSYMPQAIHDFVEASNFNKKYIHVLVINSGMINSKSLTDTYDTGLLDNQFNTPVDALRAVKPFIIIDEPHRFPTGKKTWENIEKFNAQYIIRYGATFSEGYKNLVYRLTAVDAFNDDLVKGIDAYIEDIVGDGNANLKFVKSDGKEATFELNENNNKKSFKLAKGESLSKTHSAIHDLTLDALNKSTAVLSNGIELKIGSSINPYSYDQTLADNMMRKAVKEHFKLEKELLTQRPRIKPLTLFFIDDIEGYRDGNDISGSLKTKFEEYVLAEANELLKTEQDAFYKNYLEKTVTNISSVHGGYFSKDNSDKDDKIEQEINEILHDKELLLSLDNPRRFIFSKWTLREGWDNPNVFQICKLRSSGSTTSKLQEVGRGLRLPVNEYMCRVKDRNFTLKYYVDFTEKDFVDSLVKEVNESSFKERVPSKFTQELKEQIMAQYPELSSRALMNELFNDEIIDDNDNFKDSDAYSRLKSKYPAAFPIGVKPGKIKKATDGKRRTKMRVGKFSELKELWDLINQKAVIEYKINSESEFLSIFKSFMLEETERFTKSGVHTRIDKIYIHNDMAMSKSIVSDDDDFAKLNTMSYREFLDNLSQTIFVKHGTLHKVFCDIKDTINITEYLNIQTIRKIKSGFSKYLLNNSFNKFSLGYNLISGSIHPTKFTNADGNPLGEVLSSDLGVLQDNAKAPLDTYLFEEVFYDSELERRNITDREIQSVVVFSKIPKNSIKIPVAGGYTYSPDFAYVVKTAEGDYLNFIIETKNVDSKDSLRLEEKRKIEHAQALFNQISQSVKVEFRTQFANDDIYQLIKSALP

[6] = molecular target: T4, EcoP15I Res subunit, C-terminally …; test: SEC

Binder	Kd [1]	Kd [2]	Kd [3]	also measured
SR60-1/SR60-1c, dsDNA one site (dsDNA) DNA 1: GGTCGACGAACCGTAATCGTACCCAGCAGATATCGGTACCGTTCGGTAATATTCCGACGG DNA 2: CCGTCGGAATATTACCGAACGGTACCGATATCTGCTGGGTACGATTACGGTTCGTCGACC	128 nM	121 nM	16 nM	–
SR60-1, ssDNA (ssDNA) DNA: GGTCGACGAACCGTAATCGTACCCAGCAGATATCGGTACCGTTCGGTAATATTCCGACGG	268 nM	346 nM	267 nM	–
SR60-0/SR60-0c, dsDNA no site (dsDNA) DNA 1: GGTCGACGAACCGTAATCGTACCGAACCGATATCGGTACCGTTCGGTAATATTCCGACGG DNA 2: CCGTCGGAATATTACCGAACGGTACCGATATCGGTTCGGTACGATTACGGTTCGTCGACC	93 nM	160 nM	37 nM	–
EcoP15I MTase (Mod subunit, C-terminally His-tagged) (enzyme, UniProt P12364 1-644, looked up) MKKETIFSEVETANSKQLAVLKANFPQCFDKNGAFIQEKLLEIIRASEVELSKESYSLNWLGKSYARLLANLPPKTLLAEDKTHNQQEENKNSQHLLIKGDNLEVLKHMVNAYAEKVKMIYIDPPYNTGKDGFVYNDDRKFTPEQLSELAGIDLDEAKRILEFTTKGSSSHSAWLTFIYPRLYIARELMREDGTIFISIDHNEFSQLKLVCDEIFGEQNHVGDLVWKNATDNNPSNIAVEHEYIIVYTKNKEQLISEWKSNISDVKNLLVNIGEEFASKYTGNELQEKYTQWFREHRSELWPLDRYKYIDKDGIYTGSQSVHNPGKEGYRYDIIHPKTKKPCKQPLMGYRFPLDTMDRLLSEEKIIFGDDENKIIELKVYAKDYKQKLSSVIHLDGRVATNELKELFPEMTQPFTNAKTIKLVEDLISFACDGEGIVLDFFAGSGTTAHTVFNLNNKNKTSYQFITVQLDEPTKDKSDAMKHGYNTIFDLTKERLIRASKKNRDQGFKVYQLMPDFRAKDESELTLSNHTFFDDVVLTPEQYDTLLTTWCLYDGSLLTTPIEDVDLGGYKAHLCDGRLYLIAPNFTSEALKALLQKVDSDKDFAPNKVVFYGSNFESAKQMELNEALKSYANKKSIELDLVVRN	–	–	–	stoichiometry N (AUC): 2
EcoP15I Mod subunit (earlier preparations from pACYC177, no affinity tag) (natural protein, UniProt P12364 1-644, looked up) MKKETIFSEVETANSKQLAVLKANFPQCFDKNGAFIQEKLLEIIRASEVELSKESYSLNWLGKSYARLLANLPPKTLLAEDKTHNQQEENKNSQHLLIKGDNLEVLKHMVNAYAEKVKMIYIDPPYNTGKDGFVYNDDRKFTPEQLSELAGIDLDEAKRILEFTTKGSSSHSAWLTFIYPRLYIARELMREDGTIFISIDHNEFSQLKLVCDEIFGEQNHVGDLVWKNATDNNPSNIAVEHEYIIVYTKNKEQLISEWKSNISDVKNLLVNIGEEFASKYTGNELQEKYTQWFREHRSELWPLDRYKYIDKDGIYTGSQSVHNPGKEGYRYDIIHPKTKKPCKQPLMGYRFPLDTMDRLLSEEKIIFGDDENKIIELKVYAKDYKQKLSSVIHLDGRVATNELKELFPEMTQPFTNAKTIKLVEDLISFACDGEGIVLDFFAGSGTTAHTVFNLNNKNKTSYQFITVQLDEPTKDKSDAMKHGYNTIFDLTKERLIRASKKNRDQGFKVYQLMPDFRAKDESELTLSNHTFFDDVVLTPEQYDTLLTTWCLYDGSLLTTPIEDVDLGGYKAHLCDGRLYLIAPNFTSEALKALLQKVDSDKDFAPNKVVFYGSNFESAKQMELNEALKSYANKKSIELDLVVRN	–	–	–	stoichiometry N [4]: 1.8 ± 0.15 Mod:Res
EcoP15I Mod subunit (untagged, from pQEP15) (natural protein, UniProt P12364 1-644, looked up) MKKETIFSEVETANSKQLAVLKANFPQCFDKNGAFIQEKLLEIIRASEVELSKESYSLNWLGKSYARLLANLPPKTLLAEDKTHNQQEENKNSQHLLIKGDNLEVLKHMVNAYAEKVKMIYIDPPYNTGKDGFVYNDDRKFTPEQLSELAGIDLDEAKRILEFTTKGSSSHSAWLTFIYPRLYIARELMREDGTIFISIDHNEFSQLKLVCDEIFGEQNHVGDLVWKNATDNNPSNIAVEHEYIIVYTKNKEQLISEWKSNISDVKNLLVNIGEEFASKYTGNELQEKYTQWFREHRSELWPLDRYKYIDKDGIYTGSQSVHNPGKEGYRYDIIHPKTKKPCKQPLMGYRFPLDTMDRLLSEEKIIFGDDENKIIELKVYAKDYKQKLSSVIHLDGRVATNELKELFPEMTQPFTNAKTIKLVEDLISFACDGEGIVLDFFAGSGTTAHTVFNLNNKNKTSYQFITVQLDEPTKDKSDAMKHGYNTIFDLTKERLIRASKKNRDQGFKVYQLMPDFRAKDESELTLSNHTFFDDVVLTPEQYDTLLTTWCLYDGSLLTTPIEDVDLGGYKAHLCDGRLYLIAPNFTSEALKALLQKVDSDKDFAPNKVVFYGSNFESAKQMELNEALKSYANKKSIELDLVVRN	–	–	–	stoichiometry N [5]: 2 Mod:Res; Mod:Res ratio in SEC peak 1 [6]: ~1 Mod:Res; stoichiometry N [6]: 1.8 Mod:Res
